Data on one substance can be found in article doi:10.1101/2024.05.09.593331.

The series deals with His6-Ubl1 in complex with N;Nucleocapsid (N) protein (SARS-CoV-2;SARS-CoV-2). The experiment in a line: EMSA. The note with it: 50 mM Tris-HCl pH 8, 150 mM NaCl, 5 mM CaCl2 ([…]. (In EMSA bound probe runs differently from free probe, usually more slowly.)

Usually Kd stands for the concentration at which binding is half-saturated. A low value points to tighter binding. In turn, 5' UTR 1-245 ssRNA displayed a dissociation constant Kd of 6.2 nM.
